Article PMC4397538 (2015)

Target: T1, Biotin-BH4-Bcl-XL (Homo sapiens (Human), UniProt Q07817, biotin on the N-terminus (also used without the biotin tag))
T1 chain: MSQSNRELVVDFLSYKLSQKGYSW
Test: SPR

B1: GST-tagged IP3R1 domain 3 (mouse IP3R1, a.a. 923-1581) (protein)
chain: SIHGVGELMTQVVLRGGGFLPMTPMAAAPEGNVKQAEPEKEDIMVMDTKLKIIEILQFILNVRLDYRISCLLCIFKREFDESNSQSSETSSGNSSQEGPSNVPGALDFEHIEEQAEGIFGGSEENTPLDLDDHGGRTFLRVLLHLTMHDYPPLVSGALQLLFRHFSQRQEVLQAFKQVQLLVTSQDVDNYKQIKQDLDQLRSIVEKSELWVYKGQGPDEPMDGASGENEHKKTEEGTSKPLKHESTSSYNYRVVKEILIRLSKLCVQESASVRKSRKQQQRLLRNMGAHAVVLELLQIPYEKAEDTKMQEIMRLAHEFLQNFCAGNQQNQALLHKHINLFLNPGILEAVTMQHIFMNNFQLCSEINERVVQHFVHCIETHGRNVQYIKFLQTIVKAEGKFIKKCQDMVMAELVNSGEDVLVFYNDRASFQTLIQMMRSERDRMDENSPLMYHIHLVELLAVCTEGKNVYTEIKCNSLLPLDDIVRVVTHEDCIPEVKIAYINFLNHCYVDTEVEMKEIYTSNHMWKLFENFLVDICRACNNTSDRKHADSILEKYVTEIVMSIVTTFFSSPFSDQSTTLQTRQPVFVQLLQGVFRVYHCNWLMPSQKASVESCIRVLSDVAKSRAIAIPVDLDSQVNNLFLKSHNIVQKTALNWRLSAR
B1: no binding.
